Test results from patent publication US8445635B2, “Modified H2 relaxin for tumor suppression” (Armour Therapeutics Inc., priority 2006, dated 2013).

What was measured:
LGR7 = molecular target: T1, LGR7 (Homo sapiens, UniProt Q9HBX9); assay: Flow cytometry-based relaxin binding assay on 293T-LGR7 cells, competed with bH2; details: unconcentrated CM, WT H2 1 and 4 ng/mL, ΔH2 1 ng/mL, competed with 5 ng bH2
T1 construct: expressed in transfected cells; host or cells: 293T-LGR7 (293T human embryonic kidney cells)
T1 sequence (Q9HBX9 1-757): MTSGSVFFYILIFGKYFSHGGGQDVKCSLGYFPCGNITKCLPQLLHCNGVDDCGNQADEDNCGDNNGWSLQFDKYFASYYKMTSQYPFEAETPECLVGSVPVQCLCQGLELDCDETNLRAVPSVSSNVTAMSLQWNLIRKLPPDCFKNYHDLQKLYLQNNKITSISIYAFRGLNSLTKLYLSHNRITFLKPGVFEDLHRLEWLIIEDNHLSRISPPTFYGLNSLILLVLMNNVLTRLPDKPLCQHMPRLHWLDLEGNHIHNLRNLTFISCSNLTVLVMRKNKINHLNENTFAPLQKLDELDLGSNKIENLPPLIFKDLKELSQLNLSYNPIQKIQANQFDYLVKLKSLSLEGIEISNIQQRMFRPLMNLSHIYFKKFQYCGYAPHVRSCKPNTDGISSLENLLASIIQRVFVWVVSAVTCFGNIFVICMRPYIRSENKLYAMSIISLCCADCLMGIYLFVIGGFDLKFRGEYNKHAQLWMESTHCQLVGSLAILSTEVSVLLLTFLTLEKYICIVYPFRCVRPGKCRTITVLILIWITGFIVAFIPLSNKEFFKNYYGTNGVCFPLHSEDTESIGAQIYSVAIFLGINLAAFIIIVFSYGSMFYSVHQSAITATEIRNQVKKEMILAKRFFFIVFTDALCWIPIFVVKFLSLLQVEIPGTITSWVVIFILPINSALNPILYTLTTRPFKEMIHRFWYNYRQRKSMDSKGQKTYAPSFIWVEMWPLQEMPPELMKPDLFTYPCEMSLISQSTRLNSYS
Procedure: To optimize collection of recombinant ΔH2 peptide for this assay, single-cell clones of LV-infected 293T cell cultures were isolated. Clones were confirmed by flow cytometry measuring eGFP fluorescence and selected based on highest expression. 293T-eGFP#3, 293TΔH2/eGFP#6, 293T-H2/eGFP#3 cell cultures were seeded in 15-cam plates in complete medium overnight, refreshed with Dulbecco's Modified Eagle Medium (DMEM) medium containing 2% FCS after 24 h, and incubated for an additional 48 h. At this point, CM were collected for assays. H2 relaxin levels in unconcentrated CM from 293T-eGFP#3, 293TΔH2/eGFP#6, 293T-H2/eGFP#3 cell cultures were approximated by the H2 ELISA to be 0, 1, and 4 ng/mL (data not shown).
293T-LGR7 cells were collected, washed with PBS supplemented with 1% FCS (PBS-1%), and resuspended at 1.67×10^7 cells/mL. For each sample, 30 μl (0.5×10^6 […]) were added per 5 mL polystyrene round-bottom Falcon tube (Becton Dickinson Labware, Franklin Lakes, N.J., USA). Control samples contained 50 μL of either PBS-1% containing 5 ng of rH2 or 50 μL of PBS-1% alone. […] Samples were incubated for 15 min at RT. […] Cells were washed twice with 500 μL of PBA-1% and analyzed on a FACSCalibur flow cytometer) BDBiosciences, Franklin Lakes, N. J., USA).

[1] = Plasma osmolality of PC3-Luc tumor-bearing mice at week 11; format: in vivo, mouse; details: week 11, P=0.04
Procedure: To determine whether H2 and ΔH2 relaxins secreted from the PC3-Luc tumor xenografts elicited a systemic physiological response, plasma osmolality was measured from the animals at the termination of the study (FIG. 4D). Plasma osmolality readings obtained from PC3-H2/eGFP, PC3-Luc-eGFP and PC3-Luc-ΔH2/eGFP animals averaged 330±4.6 […] and 342±4.6 mmol/L, respectively. […] Overexpression of ΔH2 relaxin in the tumor microenvironment may inhibit endogenous H2 relaxin progrowth signals to tumor cells or tumor-infiltrated ECs.
Six-to-eight week old male NOD/SCID mice (The Jackson Laboratory; Bar Harbour, Me.) wore maintained at the Animal Resource Facility (PMH, Toronto, Canada) under an approved UHN protocol. […] Tumors were measured weekly by calipers and tumor volume approximated (l×w×d), as described previously (Silvertown, J. D., Ng, J., Sato, T., Summerlee, A. J., Medin, J. A. 2006. H2 relaxl; overexpression increases in vivo prostate xenograft tumor growth and angiogenesis. Iift J Cancer. 118:62-73). […] For plasma osmolality readings, approximately 100-200 μL of blood was collected in heparin (heparin sodium, 1000 USP units/mL; Hepalean) and sent for analysis (Animal Health Laboratory, Department of Pathobiology, University of Guelph).

relaxin receptor = details: Bullesbach 1992; cited from earlier work
[2] = molecular target: T2, relaxin receptors on THP-1 cells (Homo sapiens, UniProt Q9HBX9); assay: THP-1 cAMP bioassay; details: THP-1 and PC3-Luc cell cultures
T2 sequence (Q9HBX9 1-757): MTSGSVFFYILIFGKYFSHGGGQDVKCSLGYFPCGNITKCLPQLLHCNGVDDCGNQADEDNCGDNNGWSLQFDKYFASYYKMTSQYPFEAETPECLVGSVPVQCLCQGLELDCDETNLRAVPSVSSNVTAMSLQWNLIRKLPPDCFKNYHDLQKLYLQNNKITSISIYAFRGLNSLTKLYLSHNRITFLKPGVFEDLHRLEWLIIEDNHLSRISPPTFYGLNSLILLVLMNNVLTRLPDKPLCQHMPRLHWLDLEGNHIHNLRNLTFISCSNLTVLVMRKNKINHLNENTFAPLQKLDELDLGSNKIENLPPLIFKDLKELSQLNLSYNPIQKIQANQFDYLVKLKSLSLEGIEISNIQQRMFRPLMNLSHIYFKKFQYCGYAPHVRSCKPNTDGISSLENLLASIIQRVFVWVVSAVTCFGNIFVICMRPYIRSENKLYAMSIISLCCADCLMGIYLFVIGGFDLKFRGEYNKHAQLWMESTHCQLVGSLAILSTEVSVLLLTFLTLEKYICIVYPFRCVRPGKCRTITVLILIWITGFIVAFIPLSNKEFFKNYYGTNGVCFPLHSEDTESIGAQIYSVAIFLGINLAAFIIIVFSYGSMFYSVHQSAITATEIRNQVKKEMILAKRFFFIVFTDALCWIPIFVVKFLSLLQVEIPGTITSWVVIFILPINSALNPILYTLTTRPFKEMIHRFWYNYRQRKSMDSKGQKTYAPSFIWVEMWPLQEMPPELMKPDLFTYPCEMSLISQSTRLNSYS
Excerpt: To confirm the biological activity of the H2 and ΔH2 relaxins, the cAMP Biotrak E1A System was employed (Amersham Biosciences) as described before (Parsell, D. A., Mak, J. Y., Amento, E P., Unemori, E. N. 1996. Relaxin binds to and elicits a response from cells of the human monocytic cell line, THP-1. J Biol Chem. 271:27936-41; Silvertown, J. D., Geddes, B. J., Summerlee, A. J. 2003. Adenovirus mediated expression of human prorelaxin promotes the invasive potential of canine mammary cancer cells. Endocrinology. 144:3683-91). For measuring bioactivity from CM, 40 μL from each concentrated CM sample was added to THP-1 cells. For measuring cAMP levels directly from the LV-infected PC3-Luc cells, 1×10^5 cells were seeded in a 96-well plate and equilibrated for 2 h before cAMP was measured as described (Parsell, D. A., Mak, J. Y., Amento, E P., Unemori, E. N. 1996. Relaxin binds to and elicits a response from cells of the human monocytic cell line, THP-1. J Biol Chem. 271:27936-41; Silvertown, J. D., Geddes, B. J., Summerlee, A. J. 2003. Adenovirus-mediated expression of human prorelaxin promotes the invasive potential of canine mammary cancer cells. Endocrinology. 144:3683-91). The THP-1 cAMP assay was also adapted for an H2 relaxin competitive assay. […]

B1: ΔH2: H2 relaxin with lysine substitution at B13 and B17 of the receptor binding domain, B20 Ile (protein, UniProt P04090 1-185, looked up, variant R13K R17K)
chain: MPRLFFFHLLGVCLLLNQFSRAVADSWMEEVIKLCGKELVKAQIAICGMSTWSKRSLSQEDAPQTPRPVAEIVPSFINKDTETINMMSEFVANLPQELKLTLSEMQPALPQLQQHVPVLKDSSLLFEEFKKLIRNRQSEAADSSPSELKYLGLDTHSRKKRQLYSALANKCCHVGCTKRSLARFC
modifications: B-chain numbering
For B1, the receptor affinity (LGR7) is given as “low”, the “plasma osmolality increase compared to wild-type H2-expressing tumor animals” value [1] is given as “approximately 12 mmol/L” and the biological activity (relaxin receptor) is given as “biologically inactive”. The “lower affinity for receptor binding than wild type H2 relaxin” value (relaxin receptor) was about 2200 fold and the “Bioactivity by cAMP assays” value [2] was “significantly impaired”.
